B1: LINE1-full (parent)
chain: UACGUAGGUGGUUUUCCCCUGAUAGUGCUAAGGGGGCCUGGAAGUUUGGACUGGGCAGAGCUCAACACAGCGUGGCAAAGUGGCUGUGGCUAGACUGCCUCUCUGGAUUCCUCGUCACUCAGCAGGGCAUCUCUGAGAGAAAUGCC

Variants of: B1
Test: self-cleavage, relative activity (ratio to wild type); higher = more cleavage; in vitro, sequencing; the parent is a self-cleaving ribozyme
In the case of U81C U130C, the self-cleavage is reported as 1.88.
U81C U130A showed a self-cleavage of 1.27.
Work on A79U C101A yielded a self-cleavage of 1.92.
With A79G C118U the self-cleavage was 2.23.
Work on A78G C98G yielded a self-cleavage of 0.11.
Work on A78G C98U yielded a self-cleavage of 0.47.
U81C A138C gave a self-cleavage of 2.23.
In the case of U81C A138U, the self-cleavage is reported as 1.22.
C84U A124U gave a self-cleavage of 0.18.
Work on U81A C118U yielded a self-cleavage of 1.78.
With G83A U96C the self-cleavage was 0.11.
In the case of A79G A138C, the self-cleavage is reported as 2.4.
With A79G G82U the self-cleavage was 1.32.
A78U A92U showed a self-cleavage of 1.02.
Work on G80C A141G yielded a self-cleavage of 1.04.
In the case of A79G C145U, the self-cleavage is reported as 1.09.
U81C A124G showed a self-cleavage of 1.25.
U81C A124U showed a self-cleavage of 0.74.
Variant A79G U81C has a self-cleavage of 0.27.
A79G U81A gave a self-cleavage of 2.28.
A78U U112A gave a self-cleavage of 2.12.
For U81C C146A, the self-cleavage was 1.8.
Work on G80A G126U yielded a self-cleavage of 2.06.
Work on G83U A141G yielded a self-cleavage of 0.99.
In the case of G83A U132A, the self-cleavage is reported as 1.09.
G80A U100C showed a self-cleavage of 1.42.
For U81C G127A, the self-cleavage was 2.07.
For G82U U112C, the self-cleavage was 1.18.
With A79G G137A the self-cleavage was 1.03.
In the case of G82A A141G, the self-cleavage is reported as 1.8.
U81A C123U gave a self-cleavage of 1.01.
For U81C U85C, the self-cleavage was 0.12.
In the case of A79G U104C, the self-cleavage is reported as 1.22.
A79G U104G showed a self-cleavage of 1.7.
A79G U104A gave a self-cleavage of 1.35.
In the case of G80C U109C, the self-cleavage is reported as 1.27.
A79U A117G showed a self-cleavage of 2.57.
Variant U81A U104C has a self-cleavage of 2.77.
With U81A U104A the self-cleavage was 1.81.
Variant U81C G114A has a self-cleavage of 1.17.
With A78G G89C the self-cleavage was 0.07.
Variant A78G C90U has a self-cleavage of 0.03.
Variant A79G G122A has a self-cleavage of 1.31.
Work on A79G U130A yielded a self-cleavage of 1.09.
A78U A124U gave a self-cleavage of 2.15.
In the case of A79U U115C, the self-cleavage is reported as 1.12.
A78G A138G gave a self-cleavage of 1.69.
For A78G A138C, the self-cleavage was 1.31.
For A79C U85C, the self-cleavage was 0.58.
In the case of A78U U91G, the self-cleavage is reported as 0.11.
A79G U134G gave a self-cleavage of 0.57.
Work on A79G U134C yielded a self-cleavage of 1.25.
In the case of A78G U81C, the self-cleavage is reported as 1.62.
Work on A78G U81G yielded a self-cleavage of 0.34.
With U81A U91A the self-cleavage was 0.93.
For A79C U134A, the self-cleavage was 1.24.
U81C U134C showed a self-cleavage of 1.36.
In the case of U81C U134A, the self-cleavage is reported as 0.94.
For G82A A142G, the self-cleavage was 2.1.
In the case of U81C A117U, the self-cleavage is reported as 1.56.
With U81C A117C the self-cleavage was 1.59.
Work on U81A U100C yielded a self-cleavage of 2.98.
Variant A79G U91A has a self-cleavage of 0.32.
With U81C G125U the self-cleavage was 1.5.
Variant G82A G114C has a self-cleavage of 3.
With A78G U119G the self-cleavage was 1.04.
Variant G80A G89A has a self-cleavage of 0.07.
With A79G G89U the self-cleavage was 0.05.
U81A G114C showed a self-cleavage of 2.67.
Work on A79U C84A yielded a self-cleavage of 0.21.
A79G U115A showed a self-cleavage of 1.4.
G80A G86A gave a self-cleavage of 0.05.
Work on A78U A140U yielded a self-cleavage of 1.72.
Variant A78U C116G has a self-cleavage of 2.13.
With A79C A136G the self-cleavage was 1.93.
In the case of A79C A121G, the self-cleavage is reported as 1.67.
In the case of A79G U96C, the self-cleavage is reported as 0.16.
Variant A79G U96A has a self-cleavage of 0.09.
C84G A140G showed a self-cleavage of 0.12.
A78G U104C showed a self-cleavage of 1.82.
Variant G82A A117G has a self-cleavage of 1.77.
With A78G G144A the self-cleavage was 1.3.
A78G G114A showed a self-cleavage of 0.83.
A78G G114C gave a self-cleavage of 1.09.
A79G A140G gave a self-cleavage of 1.12.
With U81C U87A the self-cleavage was 0.1.
In the case of G80A G127C, the self-cleavage is reported as 1.6.
Variant A78G U102G has a self-cleavage of 0.2.
Work on A78G U102C yielded a self-cleavage of 1.53.
Variant A79C U91A has a self-cleavage of 0.94.
With G80U A138G the self-cleavage was 1.45.
Work on C84G U132C yielded a self-cleavage of 0.11.
In the case of G80A A94G, the self-cleavage is reported as 0.23.
Work on A79G U87G yielded a self-cleavage of 0.07.
G80A A124U gave a self-cleavage of 2.27.
For A79G C120A, the self-cleavage was 1.39.
Variant U81C G139A has a self-cleavage of 1.63.
With A78G U100C the self-cleavage was 2.09.
Work on A78G U100A yielded a self-cleavage of 0.16.
In the case of G82A A129G, the self-cleavage is reported as 2.28.
For G82A A129U, the self-cleavage was 1.21.
With A79G C113A the self-cleavage was 0.14.
Work on A79G G135A yielded a self-cleavage of 1.38.
U81C U109C gave a self-cleavage of 0.38.
For G83C U132A, the self-cleavage was 0.73.
Variant C84U A140G has a self-cleavage of 0.07.
With U81C U112C the self-cleavage was 1.26.
Variant A78G G127A has a self-cleavage of 1.16.
With A79G C116U the self-cleavage was 1.63.
A79G G105U gave a self-cleavage of 1.19.
With A79G G105A the self-cleavage was 1.29.
In the case of A79G G80A, the self-cleavage is reported as 1.89.
For C84A C131A, the self-cleavage was 0.18.
For U81C C111U, the self-cleavage was 1.75.
For G80A U102C, the self-cleavage was 1.92.
A78U A79G showed a self-cleavage of 0.74.
Variant A78U G127C has a self-cleavage of 2.34.
In the case of A78U U96A, the self-cleavage is reported as 0.07.
U81C U100C gave a self-cleavage of 1.29.
C84U C98G gave a self-cleavage of 0.08.
With A79G G83U the self-cleavage was 0.2.
In the case of A78G G83A, the self-cleavage is reported as 0.25.
With G83A U130C the self-cleavage was 1.13.
With G80A A138G the self-cleavage was 2.06.
Variant A79G U132G has a self-cleavage of 0.63.
U81A U87C gave a self-cleavage of 0.19.
For U81A U87A, the self-cleavage was 0.11.
In the case of A79G A117G, the self-cleavage is reported as 1.27.
U81A U85C gave a self-cleavage of 0.16.
U81G A124U showed a self-cleavage of 1.75.
With G83C U143G the self-cleavage was 1.08.
For A79G A107C, the self-cleavage was 0.92.
Variant A79G A107G has a self-cleavage of 1.21.
Work on C84G U96A yielded a self-cleavage of 0.09.
With A79G G86U the self-cleavage was 0.1.
A78U A142U gave a self-cleavage of 2.12.
For A78U A142G, the self-cleavage was 1.87.
For U81A A107G, the self-cleavage was 1.84.
With A79U A107U the self-cleavage was 1.74.
For U81C G144A, the self-cleavage was 0.42.
In the case of A79C A92G, the self-cleavage is reported as 0.24.
C84A G93U gave a self-cleavage of 0.05.
In the case of A78G U134G, the self-cleavage is reported as 1.07.
In the case of A78G U134A, the self-cleavage is reported as 0.9.
With A79C A138U the self-cleavage was 2.19.
In the case of U81C C95U, the self-cleavage is reported as 0.26.
G83A G127A gave a self-cleavage of 0.52.
Variant A79G A142U has a self-cleavage of 2.04.
In the case of A78G A129U, the self-cleavage is reported as 1.17.
Work on C84A U130A yielded a self-cleavage of 0.07.
In the case of G83U U143C, the self-cleavage is reported as 1.01.
U81A A140G gave a self-cleavage of 1.95.
For A78G U87C, the self-cleavage was 0.15.
A78G U87A gave a self-cleavage of 0.1.
U81A U130A showed a self-cleavage of 1.3.
With A79U G86A the self-cleavage was 0.07.
For A79U G125A, the self-cleavage was 1.6.
A78U U143C gave a self-cleavage of 1.31.
A79U U143A gave a self-cleavage of 1.29.
With A79U U143C the self-cleavage was 2.02.
G80U U134A gave a self-cleavage of 1.45.
In the case of A78U A141G, the self-cleavage is reported as 1.96.
Variant A79G C128A has a self-cleavage of 0.46.
Variant A79U C99A has a self-cleavage of 0.31.
Variant U81C A121C has a self-cleavage of 1.37.
A78G C116U gave a self-cleavage of 1.29.
With G80U A121G the self-cleavage was 1.5.
